Data on one protein can be found in article PMC2654124 (The Journal of Cell Biology, 2009).

The data set deals with the molecule itself. Description: native gel or EMSA. In general terms: In EMSA bound probe runs differently from free probe, usually more slowly.

B1: Ugo1 (natural protein)
chain: MNNNNVTEATSRAQIRPYYDPDSFNAGYSAVFKPDEGVVDPHGYTIASKLNVINSSPTTKRMANALFKSSPMKKLSNSVNDGLSLEGSNGEITGLNNFEWAELVNIQKWRKIFEQLLDMFFRKYFQLLIQQPFDVARLLIQVGEFKIFKTTVDTNKPQAPIILRDEEGDGAAREGEEDAYDEEEIDFFPIERKIAEANSTAPIMAEETDHSHHEPTDISLTIAPQSLHTIDVINALFDQEGIRGLWKANNTTFIYNFLSLSIDTWFTGLLSSFLGVPDPYFMEVINSPDISKSFILALGAGVFTSIILLPVDLIRTRLIVTSFKKKKNVKTDGKNMVTNTRSLRQLIRCWSWRKNGVSIPLDMWSLTILQSINNSFFNKLFDLVIYNQFHIEKYSQTVMYNTMKFFSKSLELFIKLPLENLLRRCQLNYLLNDQRLSFKVDSTELIVKPKKYNGIWDVIRNNSNTNRGQLWNGWKVGVISLICGYGLQMMNKVDINMEQEKF
With B1, the stoichiometry N (in general, the number of molecules, sites or subunits per partner or assembly) turned out to be 2.
